According to patent publication US20220403428A1:

Biological target: PcPsiH, Psilocybe cubensis tryptamine 4-monooxygenase (cytochrome P450 enzyme) (Psilocybe cubensis) (UniProt P0DPA7)
Test: cell-based or functional assay

psilocin titer	psilocybin titer	extracellular accumulation of tryptamine	Substance
135 mg/L	117 mg/L		PcCpr, putative Psilocybe cubensis cytochrome P450 reductase (enzyme)
		90 mg/L	native S. cerevisiae cytochrome P450 reductase (Ncp1) (from UniProt P16603 2-691) (enzyme)
